The target of series [1] is T1, Put3 (UniProt P25502 1-979).
T1 sequence: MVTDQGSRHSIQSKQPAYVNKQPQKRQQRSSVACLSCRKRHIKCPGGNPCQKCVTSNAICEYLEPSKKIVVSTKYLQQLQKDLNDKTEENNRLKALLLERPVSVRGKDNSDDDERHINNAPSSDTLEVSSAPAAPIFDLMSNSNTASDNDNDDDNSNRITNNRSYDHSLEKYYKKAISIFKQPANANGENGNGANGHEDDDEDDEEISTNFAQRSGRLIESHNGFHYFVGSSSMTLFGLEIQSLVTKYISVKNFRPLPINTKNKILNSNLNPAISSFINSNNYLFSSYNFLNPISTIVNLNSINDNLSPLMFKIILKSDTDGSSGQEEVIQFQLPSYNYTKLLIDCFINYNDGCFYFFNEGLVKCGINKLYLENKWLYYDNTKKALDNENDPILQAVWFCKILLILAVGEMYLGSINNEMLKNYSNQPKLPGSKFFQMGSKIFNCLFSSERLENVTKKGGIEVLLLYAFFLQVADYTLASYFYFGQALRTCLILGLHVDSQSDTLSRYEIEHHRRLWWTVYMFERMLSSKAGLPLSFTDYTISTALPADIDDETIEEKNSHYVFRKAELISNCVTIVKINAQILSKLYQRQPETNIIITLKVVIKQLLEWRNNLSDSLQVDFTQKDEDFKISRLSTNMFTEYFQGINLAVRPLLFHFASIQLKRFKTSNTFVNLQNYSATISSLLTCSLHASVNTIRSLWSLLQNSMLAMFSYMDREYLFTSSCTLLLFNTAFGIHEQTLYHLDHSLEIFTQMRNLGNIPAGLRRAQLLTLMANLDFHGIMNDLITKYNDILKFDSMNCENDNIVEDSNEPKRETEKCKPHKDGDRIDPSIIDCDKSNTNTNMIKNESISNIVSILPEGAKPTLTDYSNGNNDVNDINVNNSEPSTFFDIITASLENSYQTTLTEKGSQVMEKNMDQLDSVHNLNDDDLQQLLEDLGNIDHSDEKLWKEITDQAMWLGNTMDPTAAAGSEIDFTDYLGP
Kind of series: EMSA. (In EMSA bound probe runs differently from free probe, usually more slowly.)

For series [2], the target named is Put3;Myo3 (Saccharomyces cerevisiae?;Saccharomyces …, UniProt P25502;P36006 1-979;1-1272, |). Kind of series: EMSA.

B1: UAS oligonucleotide (dsDNA)
DNA 1: TCTCGGGAAGCCAACTCCGAAGC
DNA 2: GCTTCGGAGTTGGCTTCCCGAGA
For the molecule B1, the binding result in series [1] is reported as “binds”.

B2: GRSI oligonucleotide (dsDNA)
DNA 1: GTGTTCCGGGGTTGGATGCGGAA
DNA 2: TTCCGCATCCAACCCCGGAACAC
For B2, the binding result in series [1] and in series [2] was “binds” each time.
